In paper PMC3293901, “Identification, Purification and Characterization of Laterosporulin, a Novel Bacteriocin Produced by Brevibacillus sp. Strain GI-9” (PLoS ONE, 2012):

Experiments:
[1] = test system: B. subtilis; assay: Growth inhibition assay of the synthetic partial peptide; assay type: cell-based; conditions: custom synthesized 19-mer, indicator strain B. subtilis
Excerpt: (§1) The molecular mass observed for laterosporulin by MALDI-TOF was 5605.8 Da ( Fig. 3 ), which is in good agreement with mass obtained by gel filtration chromatography ( Fig. 2A ). The N-terminal sequence of laterosporulin yielded partial sequence of ^1A(M)Q(C)QG(C/Q)PDAISGWTHTDYQCH^19 for two independently processed samples. The uncertainties at the 1st, 2nd and 4th positions obtained in N-terminal sequences were considered to predict the antibacterial activity of each possible peptide sequence using a database of peptides with known antimicrobial potency. […] To confirm the antimicrobial activity of this partial peptide, it was custom synthesized, mass was confirmed by MALDI-TOF and the synthetic peptide was examined in growth inhibition assays using indicator strains B. subtilis and E. coli.
(§2) To evaluate antibacterial function of the N-terminal peptide, a 19-mer peptide representing the N-terminal sequence of the bioactive protein was synthesized using standard Fmoc-chemistry on 2-chlorotrityl resin (0.2 mmol/g). Synthesis was carried out on a semi-automated synthesizer (PS-II) (Protein Technologies Inc., AZ USA). It was cleaved with TFA and purified by RP-HPLC system (Dionex, Ultimate-3000) using C-18 analytical column. The purified peptide was subjected to MALDI-TOF analysis for confirmation of molecular mass.

[2] = test system: E. coli; assay: as above; assay type: cell-based; conditions: custom synthesized 19-mer, indicator strain E. coli
Excerpt: as §1, §2

[3] = Heat stability, residual antimicrobial activity; assay type: physicochemical; conditions: 120°C for 15 min
Procedure: (§3) The sensitivity of the purified bacteriocin towards different pH, temperature and proteases was evaluated. To determine pH and temperature resistance, the purified peptide was incubated at different pH values between 2.0–12.0 and temperatures 80, 100°C for 30 min and 120°C for 15 min. Different hydrolytic enzymes including pepsin, trypsin, chymotrypsin, proteinase K, pronase E and amylase were incubated with bacteriocin for 6 hours at 37°C to ensure their effect. The enzyme activity was terminated by heating at 80°C before the bacteriocin activity was confirmed.

[4] = Treatment with dithiothreitol, residual antimicrobial activity; assay type: physicochemical; conditions: DTT used to disrupt disulfide bonds; data not shown
[5] = test system: L. monocytogenes; assay: Growth inhibition of test strain; assay type: cell-based; conditions: test strain L. monocytogenes (MTCC 839)
Procedure: (§4) The CFB of strain GI-9 was used to determine the antimicrobial activity. Culture was grown for 48 hours in nutrient broth (NB, Himedia) and subsequently cells were removed by centrifugation (10,000 rpm for 10 min, 4°C). The supernatant obtained was filtered by using 0.22 µm filter (Millipore). The filtrate was diluted by two fold dilution and amounts of 100 µl of different dilutions were used to test the activity. These dilutions were added to the wells that are prepared in plates containing nutrient agar medium seeded with test organism. Above test was also performed using minimal medium to check influence of the medium components on antimicrobial activity. A growth curve up to 24 hours was prepared for strain GI-9 to examine the bacteriocin production at different stages. One unit of bacteriocin was defined as the […] dilution that was given an inhibition zone around the well and reciprocal of this dilution is defined as the unit of antimicrobial activity per ml.

[6] = test system: S. aureus; assay: MIC, microtiter plate dilution assay; assay type: cell-based; conditions: purified laterosporulin, micro-titer plates, triplicates, 30°C, OD 600 nm, 48 h
Procedure: (§5) The MIC of bacteriocin for different strains was evaluated by using a microtiter plate dilution assay. Test strains were grown to logarithmic phase under optimal conditions (up to 0.3 OD) and the test was performed in triplicates. Each well of the microtiter plate was added with 200 µl of fresh nutrient medium and 50 µl of test strains in different rows. Subsequently, different dilutions (50 µl) of freshly prepared bacteriocin were added to each well. The first column of the microtiter plate was left as a blank while reading through an ELISA plate reader (Thermo Scientific). The microtiter plates were incubated at 30°C incubator and OD was measured at 600 nm at different time intervals.

[7] = test system: B.subtilis; assay: MIC, microtiter plate dilution assay; assay type: cell-based; conditions: purified laterosporulin, micro-titer plates, triplicates, 30°C, OD 600 nm, 48 h
Procedure: as §5

[8] = test system: E. coli; assay: Bactericidal effect by scanning electron microscopy; assay type: cell-based; conditions: 500 µg/ml purified peptide, 4 hours, 37°C, about 2×10^7 cells/ml; compared to untreated bacteria
Procedure: To examine the bactericidal activity, E.coli cells were grown in NB to an exponential phase, harvested by centrifugation. The pellet obtained was resuspended in fresh NB and aliquots of 5 ml containing about 2×10^7 cells/ml were incubated at 37°C for 4 hours with 500 µg/ml laterosporulin. Samples at 0, 2 and 4 hours interval were centrifuged and pellets were resuspended in 500 µl of phosphate buffer. Each sample was spread on a poly (L-lysine)-coated glass slides (18×18 mm) to immobilize bacterial cells and incubated at 30°C for 90 min. They were fixed with modified Karnovsky's fixative and dehydrated with a graded ethanol series.

[9] = pH stability, residual antimicrobial activity; assay type: physicochemical
Procedure: as §3

[10] = test system: Gram-positive and Gram-negative bacteria; assay: Antibacterial spectrum; assay type: cell-based; conditions: wide range of Gram-positive and Gram-negative bacteria
Procedure: as §4
The MIC of bacteriocin for different strains was evaluated by using a microtiter plate dilution assay. […] The first column of the microtiter plate was left as a blank while reading through an ELISA plate reader (Thermo Scientific). The microtiter plates were incubated at 30°C incubator and OD was measured at 600 nm at different time intervals.

[11] = test system: chymotrypsin; assay: Resistance to proteolytic enzyme, residual antimicrobial activity; assay type: in vitro ADME; conditions: 6 hours at 37°C, enzyme terminated by heating at 80°C
Procedure: as §3

[12] = test system: trypsin; assay: as above; assay type: in vitro ADME; conditions: 6 hours at 37°C, enzyme terminated by heating at 80°C
Procedure: as §3

[13] = test system: pronase E; assay: as above; assay type: in vitro ADME; conditions: 6 hours at 37°C, enzyme terminated by heating at 80°C
Procedure: as §3

[14] = test system: pepsin; assay: as above; assay type: in vitro ADME; conditions: 6 hours at 37°C, enzyme terminated by heating at 80°C
Procedure: as §3

[15] = molecular target: proteinase K (Parengyodontium album, UniProt P06873); assay: as above; assay type: in vitro ADME; conditions: 6 hours at 37°C, enzyme terminated by heating at 80°C
Procedure: as §3

Sequence of proteinase K (P06873 106-384): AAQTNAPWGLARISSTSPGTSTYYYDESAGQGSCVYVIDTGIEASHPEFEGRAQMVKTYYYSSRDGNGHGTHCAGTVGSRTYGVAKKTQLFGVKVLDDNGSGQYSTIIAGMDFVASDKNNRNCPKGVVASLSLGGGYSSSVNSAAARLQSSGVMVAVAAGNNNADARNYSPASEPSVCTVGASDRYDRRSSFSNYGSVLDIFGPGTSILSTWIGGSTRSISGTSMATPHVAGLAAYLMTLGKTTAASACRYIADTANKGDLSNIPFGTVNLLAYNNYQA

Substance	antimicrobial activity [1]	antimicrobial activity [2]	heat stability (antimicrobial activity after exposure) [3]	antimicrobial activity after treatment with dithiothreitol (DTT) [4]	growth inhibition [5]	MIC (sensitivity in words, values only in Fig. 4) [6]	MIC (sensitivity in words, values only in Fig. 4) [7]	bactericidal effect, cell morphology by SEM [8]	pH stability (antimicrobial activity after incubation) ([9]; above pH 10 (tested up to 12.0))	pH stability (antimicrobial activity after incubation) ([9]; pH between 2.0 to 10.0)	antibacterial activity [10]	antimicrobial activity after incubation with chymotrypsin [11]	antimicrobial activity after incubation with trypsin [12]	antimicrobial activity after incubation with pronase E [13]	antimicrobial activity after incubation with pepsin [14]	antimicrobial activity after incubation with proteinase K [15]
ACQCPDAISGWTHTDYQCH	weak antimicrobial activity at significantly higher concentration	weak antimicrobial activity at significantly higher concentration	–	–	–	–	–	–	–	–	–	–	–	–	–	–
^1A(M)Q(C)QG(C/Q)PDAISGWTHTDYQCH^19 [laterosporulin, 5.6 kDa bacteriocin purified from culture supernatant of Brevibacillus sp. strain GI-9]	–	–	no reduction in antimicrobial activity	did not affect	could inhibit the growth	highly sensitive	highly sensitive	significant modifications in cell shape and morphology	reduced significantly	no reduction in antimicrobial activity	active	did not show any reduction	did not show any reduction	did not show any reduction	did not show any reduction	did not show any reduction
